Laboratory results as given in paper doi:10.1101/2025.09.11.675134, “Biodistribution-Driven Discovery Identifies a Glycosidase-Cleavable Linker to Reprogram Radiotheranostics” (bioRxiv, 2025).
Like-named read-outs stand apart in the source and are kept apart here.

Key:
AR42J xenografts = assay: Dosimetry estimates of 225Ac-labeled variants from biodistribution data; type: in vivo, athymic nu/nu mice
Source text: To evaluate the organ-level radiation absorbed dose resulting from different DOTA-TATE derivatives, we calculated the total effective dose per unit of injected activity (Eff Dose/IA, mSv/MBq) for ^225Ac-labeled variants based on biodistribution data in AR42J xenograft-bearing mice (Tables S5).
Estimated absorbed doses for individual organs for ^225Ac- and ^86Y-labeled DOTA-TATE variants were derived from residence times calculated using %IA/g data from biodistribution studies. The time–activity curves incorporated data from both radionuclides to provide complete coverage of early and late time points. Details of the dosimetry methodology, including time–activity curve construction, integration approach, decay assumptions, and conversion to effective dose, are provided in the Supplementary Information.
Dosimetry: The dosimetry was calculated by measuring the residence time per gram for each organ using the percent injected activity per gram (%IA/g) data collected for the biodistribution study. Because two biodistribution data sample groups were collected, one for the 86Y and the other for the 225Ac variant of the three DOTA-TATE variants (DOTA-TATE, DOTA-MVK(ε)- TATE, and DOTA-β-Gal-TATE) the %IA/g time activity curves (TAC) of the 86Y variant were merged with the 225Ac TACs. This was possible because of the difference in half lives between 86Y and 225Ac being 14.74 and 237.8 hours respectively setting the measurement time points to be 1, 4 and 24 hours for the 86Y ligands and 24, 96 hours for 225Ac. The full time activity curve is thus made up of the 1 and 4 hour time points of the 86Y %IA/g data points, an average of the common 24 hour time point of the 86Y and 225Ac %IA/g data points and the last 96 hour %IA/g time point of the 225Ac samples. The full 4 time points of 1, 4, 24, and 96 hours making up the […]
from which the residence times were calculated.
The integration of the TAC was performed using trapezoidal interpolation between time points.
The first time point assumed constant activity and a decay curve with the half life of the radioisotope was used to estimate activity beyond 96 hours. The average %IA/g was used for each tissue sample for each time point and the resulting standard deviation of the average was then used as the error estimate per time point to propagate through the residence time calculation.
Using the residence time for each TAC, the dose was calculated by looking up the dose per decay for each alpha, beta (positron and electron from nuclear beta decay) and electron emission listed in the nuclear data sheets provided by the Brookhaven National Laboratory National Nuclear Data Center. Since the 225Ac decays via a complicated decay chain, it is assumed that the dose from the daughters remains in the tissue assuming no biological dissemination once the 225Ac decays breaking the bonds of the DOTA-TATE ligand. The following mean dose per decay were used. For 225Ac, 27.58MeV/Bq-s for alpha emissions, 1.33MeV/Bq-s for beta plus electron emissions. For 86Y, 0.219 MeV/Bq-s for beta and electron emissions. Gamma emissions were ignored because of the small size of the tissue samples have small gamma absorption effects which would contribute negligibly to the dose calculation. Furthermore, dosimetry estimate […]
inter organ activity can be calculated(62).
To estimate the effective dose in mSv/MBq, a radiological factor of 5 was used to multiply the dose calculated from the alpha ionizations while a factor of 1 was used for the beta and electron ionizations to convert from mGy/MBq to mSv/MBq (63, 64).

[1] = Ex vivo biodistribution of 225Ac-labeled variants in AR42J tumor-bearing mice; conditions: athymic nu/nu, mouse, total radioactivity, 225Ac-labeled; for tissue uptake at 24 h / tissue uptake at 96 h: AR42J tumor-bearing mice; for tissue uptake at 96 h: 4 days post-injection
Procedure: Prior to conducting targeted alpha-particle therapy studies using three ^225Ac-labeled variants (Fig. S17) in AR42J xenograft-bearing mice, we first assessed their in vivo pharmacokinetics through ex vivo biodistribution studies at 24 h post-injection (Fig. 5A; Tables S4). […]
For studies involving three variants (DOTA -TATE, DOTA-MVK(ε)-TATE, and DOTA-β-Gal-TATE), AR42J cells (5 × 10^6 cells per mouse) were subcutaneously inoculated into the right shoulder of the mice. Tumors were allowed to grow for 3 weeks, reaching a volume of 100 –200 mm³ before being used in subsequent experiments. […]
All samples […]
were weighed and counted on a gamma counter (2480 Wizard 3, Perkin Elmer Inc., Waltham, MA, USA). Results are presented as percentage of injected activity per gram (%IA/g) and mean values ± standard deviations. […]
Prior to conducting alpha particle therapy, biodistribution studies with 225Ac-labeled DOTA - TATE variants (117 – 163 kBq, 1 μg) were performed at 24 hours and 4 days post -injection in athymic nu/nu mice bearing AR42J tumors (n = 4 – 5). Mice were euthanized by CO 2 asphyxiation, and 10 tissues, including tumors, were collected. All samples were weighed and counted on a gamma counter after equilibration for 12 hours. Results are presented as %IA/g and mean values ± standard deviations.

[2] = 225Ac-labeled, AR42J xenografts, from biodistribution time-activity curves, alpha factor 5, mean, n = 4–5
[3] = 225Ac-labeled, dosimetry estimate
[4] = absorbed-dose estimate at 148 kBq per mouse

Structure (SMILES): C[C@@H](O)[C@H](NC(=O)[C@@H]1CSSC[C@H](NC(=O)[C@@H](Cc2ccccc2)NC(=O)CCCC(=O)Nc2cc(COC(=O)N(C)CCNC(=O)CN3CCN(CC(=O)O)CCN(CC(=O)O)CCN(CC(=O)O)CC3)ccc2O[C@@H]2O[C@H](CO)[C@H](O)[C@H](O)[C@H]2O)C(=O)N[C@@H](Cc2ccc(O)cc2)C(=O)N[C@H](Cc2c[nH]c3ccccc23)C(=O)N[C@@H](CCCCN)C(=O)N[C@@H]([C@@H](C)O)C(=O)N1)C(=O)O [^225Ac-DOTA-β-Gal-TATE, metal not drawn]
- Total effective dose per injected activity, Femur (AR42J xenografts; [2]): 7.96E+04 mSv/MBq
- Total effective dose per injected activity, Heart (AR42J xenografts; [2]): 1.20E+04 mSv/MBq
- Total effective dose per injected activity, Intestine (AR42J xenografts; [2]): 2.87E+04 mSv/MBq
- Total effective dose per injected activity, Kidney (AR42J xenografts; [2]): 1.56 × 10^5 mSv/MBq
- Total effective dose per injected activity, Liver (AR42J xenografts; [2]): 1.34E+05 mSv/MBq
- Total effective dose per injected activity, Lung (AR42J xenografts; [2]): 1.91E+04 mSv/MBq
- Total effective dose per injected activity, Muscle (AR42J xenografts; [2]): 1.02E+04 mSv/MBq
- Total effective dose per injected activity, Spleen (AR42J xenografts; [2]): 3.37E+04 mSv/MBq
- Total effective dose per injected activity, Tumor (AR42J xenografts; [2]): 1.06 × 10^6 mSv/MBq
- Total effective dose per injected activity, Blood (AR42J xenografts; 225Ac-labeled, AR42J xenografts, from merged 86Y/225Ac time-activity curves (1, 4, 24, 96 h), alpha factor 5, mean, n = 4–5): 3.93E+03 mSv/MBq
- Tumor dose higher than that of 225Ac-DOTA-MVK(ε)-TATE (AR42J xenografts; [3]): 1.59 fold
- Tumor dose higher than that of 225Ac-DOTA-TATE (AR42J xenografts; [3]): 2.46 fold
- Absorbed dose to kidney (AR42J xenografts; [4]): 4.8 Gy
- Absorbed dose to tumor (AR42J xenografts; [4]): 32.5 Gy
- Reduction of kidney dose versus 225Ac-DOTA-MVK(ε)-TATE (AR42J xenografts; [4]): ~15%
- tissue uptake at 24 h ([1]; iv, 1 ug, 24 h post-injection, ex vivo, mean (± SD), n = 4–5, read-out: Kidney uptake): 0.89 ± 0.08 %ID/g
- tissue uptake at 24 h ([1]; iv, 1 ug, 24 h post-injection, ex vivo, mean (± SD), n = 4–5, read-out: Liver uptake): 0.89 ± 0.49 %ID/g
- tissue uptake at 24 h ([1]; iv, 1 ug, 24 h post-injection, ex vivo, mean (± SD), n = 4–5, read-out: Tumor uptake): 8.22 ± 1.84 %ID/g
- tissue uptake at 24 h ([1]; iv, 1 ug, 24 h post-injection, ex vivo, mean, n = 4–5, read-out: Femur uptake): 0.48 %ID/g
- tissue uptake at 24 h ([1]; iv, 1 ug, 24 h post-injection, ex vivo, mean, n = 4–5, read-out: Intestine uptake): 0.17 %ID/g
- tissue uptake at 24 h ([1]; iv, 1 ug, 24 h post-injection, ex vivo, mean, n = 4–5, read-out: Spleen uptake): 0.47 %ID/g
- tissue uptake at 24 h ([1]; iv, 1 ug, 24 h post-injection, i.v. 1 μg (117–163 kBq), ex vivo gamma counting, mean, n = 4–5, read-out: Blood uptake): 0.04 %ID/g
- tissue uptake at 96 h ([1]; iv, 1 ug, ex vivo, mean, n = 4–5, read-out: Blood uptake): 0.03 %ID/g
- tissue uptake at 96 h ([1]; iv, 1 ug, ex vivo, mean, n = 4–5, read-out: Femur uptake): 0.42 %ID/g
- tissue uptake at 96 h ([1]; iv, 1 ug, ex vivo, mean, n = 4–5, read-out: Intestine uptake): 0.09 %ID/g
- tissue uptake at 96 h ([1]; iv, 1 ug, ex vivo, mean, n = 4–5, read-out: Kidney uptake): 0.28 %ID/g
- tissue uptake at 96 h ([1]; iv, 1 ug, ex vivo, mean, n = 4–5, read-out: Liver uptake): 0.5 %ID/g
- tissue uptake at 96 h ([1]; iv, 1 ug, ex vivo, mean, n = 4–5, read-out: Muscle uptake): 0.22 %ID/g
- tissue uptake at 96 h ([1]; iv, 1 ug, ex vivo, mean, n = 4–5, read-out: Spleen uptake): 0.22 %ID/g
- tissue uptake at 24 h ([1]; 24 h post-injection, ex vivo, mean, n = 4–5, read-out: Heart uptake): 0.1 %ID/g
- tissue uptake at 24 h ([1]; 24 h post-injection, ex vivo, mean, n = 4–5, read-out: Lung uptake): 0.1 %ID/g
- tissue uptake at 24 h ([1]; 24 h post-injection, ex vivo, mean, n = 4–5, read-out: Muscle uptake): 0.1 %ID/g
- tissue uptake at 96 h ([1]; ex vivo, mean (± SD), n = 4–5, read-out: Tumor uptake): 2.74 %ID/g
- tissue uptake at 96 h ([1]; ex vivo, mean, n = 4–5, read-out: Heart uptake): 0.13 %ID/g
- tissue uptake at 96 h ([1]; ex vivo, mean, n = 4–5, read-out: Lung uptake): 0.11 %ID/g
- tissue to tissue ratio at 24 h ([1]; AR42J xenografts, 24 h post-injection, ex vivo, mean ± SD, n = 4, read-out: Tumor-to-kidney (T/K) ratio): 9.12 ± 1.31
